Source: PMC3923644
Like-named read-outs stand apart in the source and are kept apart here.

B1: nCaRE-B SIRT1-A (dsDNA)
DNA 1: TTTTTGAGACAGAGTTTCACTCTTG
DNA 2: CAAGAGTGAAACTCTGTCTCAAAAA
B2: nCaRE-B SIRT1-B mutated (biotinylated) (dsDNA)
DNA 1: TTTTTGCTAAGGAGCGTCGCTCTTG
DNA 2: CAAGAGCGACGCTCCTTAGCAAAAA
B3: nCaRE-B SIRT1-B (dsDNA)
DNA 1: TTTTTGAGACGGAGTTTCGCTCTTG
DNA 2: CAAGAGCGAAACTCCGTCTCAAAAA
B4: nCaRE-B SIRT1-B (biotinylated) (dsDNA)
DNA 1: TTTTTGAGACGGAGTTTCGCTCTTG
DNA 2: CAAGAGCGAAACTCCGTCTCAAAAA

Assays:
[1] = biological target: T1, APE1 NΔ33 (Homo sapiens, UniProt P27695 34-318, del1-33); assay: EMSA
T1 sequence (P27695 34-318, stated change not applied): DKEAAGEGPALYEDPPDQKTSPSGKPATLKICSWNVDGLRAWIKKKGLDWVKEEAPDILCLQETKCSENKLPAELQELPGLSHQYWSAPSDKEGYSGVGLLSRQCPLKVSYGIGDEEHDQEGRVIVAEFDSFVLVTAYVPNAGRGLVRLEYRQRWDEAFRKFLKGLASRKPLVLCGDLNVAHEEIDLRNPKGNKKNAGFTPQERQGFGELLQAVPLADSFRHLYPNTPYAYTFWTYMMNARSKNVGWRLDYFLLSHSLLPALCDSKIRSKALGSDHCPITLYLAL

[2] = biological target: T2, APE1 WT (Homo sapiens, UniProt P27695 1-318); assay: EMSA
T2 sequence (P27695 whole entry): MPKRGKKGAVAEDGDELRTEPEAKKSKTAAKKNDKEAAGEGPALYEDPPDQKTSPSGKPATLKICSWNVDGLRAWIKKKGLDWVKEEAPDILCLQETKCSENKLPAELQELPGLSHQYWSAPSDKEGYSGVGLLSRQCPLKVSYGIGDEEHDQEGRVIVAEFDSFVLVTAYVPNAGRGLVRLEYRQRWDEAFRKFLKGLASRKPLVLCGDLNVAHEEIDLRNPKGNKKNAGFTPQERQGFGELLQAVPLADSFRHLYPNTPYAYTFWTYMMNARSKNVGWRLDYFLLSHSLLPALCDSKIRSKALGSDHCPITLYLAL

[3] = biological target: T2, APE1 WT; assay: SPR
[4] = biological target: T1, APE1 NΔ33; assay: SPR
[5] = biological target: T2, APE1 WT; assay: SPR; remark: listed apart in the source

Binder | binding result [1] | binding result [4] | Kd [5] | also measured
B1 | no binding | – | – | binding result [2]: binds
B2 | – | – | – | Kd [3]: 119 ± 8 µM
B3 | no binding | – | – | –
TTTTTTTTTTTTTTTTTTTTTTTT (ssDNA) [poly(dT) 24-mer] | – | no binding | 308 ± 3 µM | –
B4 | – | no binding | 3.9 ± 0.08 µM | –
